Patent US10358638B2, “Method of producing 1,5-pentadiamine using lysine decarboxylase mutant having improved thermal stability” (AJINOMOTO CO., INC., priority 2014, dated 2019)

What was measured:
[1] = Screening of lysates for retained lysine decarboxylase activity after heat treatment at 65° C.; assay type: biochemical, Escherichia coli; conditions: lysate incubated at 65° C. for 2 hours, then reacted at 37° C. for 40 minutes
Experimental: A colony of each transformant in which the mutated lysine decarboxylase had been introduced was picked up, inoculated to 1 mL of the LB medium containing 100 μg/mL of ampicillin, and cultured at 30° C. for 24 hours. 18 μL of 100 mM 2-(N-morpholino) ethanesulfonic acid (MES)-NaOH buffer (pH6.0) and 2.7 μL of FastBreak cell lysis reagent (Promega) were added to 10 μL of this cultured medium, which was then incubated at 37° C. for 30 minutes to lyse the microbial cells. Then, this lysate solution was heated up to 65° C. and incubated for 2 hours. After this heat treatment, 190 μL of a reaction solution (pH 5.5) containing 10 g/L of lysine hydrochloride, 21.3 g/L (100 mM) of MES, 26.5 mg/L of Pyridoxal-5′-phosphate (PLP) and 20 mg/L of Bromocresol purple was added and reacted at 37° C. for 40 minutes. […] More abundant formation of 1,5-PD and retention of activity as compared to bacteria expressing the wild-type enzyme after treating with heat under the above conditions were used as an indicator. Three candidate strains expressing CadA having improved thermal stability were obtained using this indicator. These transformants of E. coli JM109 strain were designated as CadA231, CadA232 and CadA233, respectively.

[2] = Remaining lysine decarboxylase activity of cell free extract after incubation at 68° C.; assay type: biochemical, Escherichia coli; conditions: 68° C., 1 hour, FIG. 1
Experimental: (§1) The activity of the lysine decarboxylase was measured according to the method described in JP patent application laid-open Publication No. 2008-193899. 0.1 mL of a microbial cell suspension or a treated product thereof was added to 1 mL of a reaction solution containing 100 mM MES-NaOH buffer (pH 6.0), 10 g/L (55 mM) of L-lysine hydrochloride and 26.5 mg/L (0.1 mM) of PLP, and then the reaction mixture was incubated at 37° C. for 5 minutes. 0.1 mL of the reaction solution was collected and added to 1 mL of 1% (v/v) phosphoric acid to stop the reaction. Lysine and 1,5-PD were quantified with HPLC by a post column OPA method (S. R. Vale and M. B. Gloria, Journal Of AOAC International (1997) vol. 80, p. 1006-1012) or a method of quantifying remaining L-lysine using a biosensor BF-5 (Oji Scientific Instruments Co., Ltd.). One unit was defined as an activity that formed 1 μmol of 1,5-PD in one minute under this condition.
A combination mutant for increasing the amount of expressed CadA was constructed using QuikChange™ Site-Directed Mutagenesis Kit (Stratagene). A mutation to alter from Val (GTT) to Ile ([…]) at position 3 was introduced using the plasmid pCadA233 as the template and using oligonucleotides v3i_r (5′-cat gtg att caa tat tgc aat aat gtt cat cta cat tcc tcc tta cg-3′(SEQ ID NO:11)) and v3i_f (5′-cgt aag gag gaa tgt aga tga aca tta ttg caa tat tga atc aca tg-3′ (SEQ ID NO:12)) as primers according to a protocol. The nucleotide sequence of the constructed plasmid was determined by the method described in Example 2 to confirm that the objective mutation had been introduced, and this plasmid was designated as pCadA234. Microbial cells of E. coli JM109/pCadA234 expressing this double mutant CadA234 at high level were cultured to prepare a cell free extract in the same manner as in Example 2. The activity in this cell free extract was 663 U/mL, which was almost the same as that from the strain expressing the wild-type enzyme.
The resulting cell free extract was diluted to 20 fold with 0.1 M MES-NaOH buffer (pH 6.0). Each crude enzyme solution was incubated at 68° C., which is a higher temperature than in Example 2, and the remaining activity was measured over time. After incubation at 68° C. for one hour, the wild-type enzyme was inactivated to 27% while the single mutant enzymes V3I and A590T were inactivated to 47% and 27%, respectively. On the contrary, the double mutant enzyme retained 70% of its activity, and even after 3 hours, still retained about 60% of its activity (FIG. 1). Therefore, it was shown that the double mutation has a synergistic effect and further improved the thermal stability.

[3] = Enzyme activity of culture media of expressing strains after heat treatment with or without disruption; assay type: cell-based, Escherichia coli
Experimental: as §1
Microbial cells of E. coli JM109/pCadA220 and E. coli JM109/pCadA234 carrying the wild-type CadA and the double mutant CadA, respectively were cultured in the LB medium. Subsequently, 15 mL of the cultured medium was inoculated into 300 mL of culture medium (25 g/L of glucose, 5 g/L of ammonium sulfate, 2 g/L of potassium phosphate, 1 g/L of magnesium sulfate heptahydrate, 20 mg/L of iron sulfate heptahydrate, 20 mg/L of manganese sulfate pentahydrate, 1 mg/L of thiamine hydrochloride, 0.45 g/L of hydrolyzed soybeans, pH 7.0) in a 500 mL jar fermenter (manufactured by ABLE & Biott Co., Ltd.), and cultured with ventilation at 300 mL/minute while stirring at 250 rpm at 30° C. for 12 hours. Culture media containing 10.1 g/L and 10.9 g/L of microbial cells in terms of dry microbial cell weight were able to be prepared for E. coli JM109/pCadA220 and E. coli JM109/pCadA234, respectively. For the purpose of improving substrate permeability, the pH value was adjusted to 5.5, and subsequently the culture media were incubated at 55° C. and 60° C., and then the culture media were directly used to measure the activity after the incubation.
Since the lysine decarboxylase is expressed within the microbial cell, when the microbial cell is used directly, lysine cannot react with the lysine decarboxylase, and the efficiency of a decarboxylation reaction is very poor. […] However, the wild-type enzyme was inactivated during the incubation when heated excessively. The mutated enzyme having the improved thermal stability could stably keep its activity even when using conditions where the wild-type enzyme was easily inactivated as shown in Example 2. When the microbial cells carrying such a mutated enzyme were used, efficient treatment in a short period of time was possible. This has shown that the mutated enzyme not only can act at higher temperature upon reaction but also can be easily used when the microbial cell is directly used.

[4] = Incubation at 55° C. for 1 h, Disruption
[5] = Incubation at 55° C. for 1 h, physical treatment None
[6] = Incubation at 55° C. for 3 h, Disruption
[7] = Incubation at 55° C. for 3 h, physical treatment None
[8] = Incubation at 60° C. for 1 h, Disruption
[9] = Incubation at 60° C. for 1 h, physical treatment None
[10] = No heat treatment, physical treatment None

B1: pCadA220: wild-type lysine decarboxylase (CadA) derived from Escherichia coli W3110, expressed from plasmid pCadA220 (protein, UniProt P0A9H3 1-715, looked up)
Inducible lysine decarboxylase: MNVIAILNHMGVYFKEEPIRELHRALERLNFQIVYPNDRDDLLKLIENNARLCGVIFDWDKYNLELCEEISKMNENLPLYAFANTYSTLDVSLNDLRLQISFFEYALGAAEDIANKIKQTTDEYINTILPPLTKALFKYVREGKYTFCTPGHMGGTAFQKSPVGSLFYDFFGPNTMKSDISISVSELGSLLDHSGPHKEAEQYIARVFNADRSYMVTNGTSTANKIVGMYSAPAGSTILIDRNCHKSLTHLMMMSDVTPIYFRPTRNAYGILGGIPQSEFQHATIAKRVKETPNATWPVHAVITNSTYDGLLYNTDFIKKTLDVKSIHFDSAWVPYTNFSPIYEGKCGMSGGRVEGKVIYETQSTHKLLAAFSQASMIHVKGDVNEETFNEAYMMHTTTSPHYGIVASTETAAAMMKGNAGKRLINGSIERAIKFRKEIKRLRTESDGWFFDVWQPDHIDTTECWPLRSDSTWHGFKNIDNEHMYLDPIKVTLLTPGMEKDGTMSDFGIPASIVAKYLDEHGIVVEKTGPYNLLFLFSIGIDKTKALSLLRALTDFKRAFDLNLRVKNMLPSLYREDPEFYENMRIQELAQNIHKLIVHHNLPDLMYRAFEVLPTMVMTPYAAFQKELHGMTEEVYLDEMVGRINANMILPYPPGVPLVMPGEMITEESRPVLEFLQMLCEIGAHYPGFETDIHGAYRQADGRYTVKVLKEESKK
- activity after heat treatment of lysate [1]: inactivated
- remaining activity after incubation at 68° C. for one hour [2]: 27%
- Enzyme activity [3, 4]: 819 units/ml
- Relative activity [3, 4]: 89.6%
- Enzyme activity [3, 5]: 246 units/ml
- Relative activity [3, 5]: 26.9%
- Enzyme activity [3, 6]: 730 units/ml
- Relative activity [3, 6]: 79.9%
- Enzyme activity [3, 7]: 375 units/ml
- Relative activity [3, 7]: 41.0%
- Enzyme activity [3, 8]: 798 units/ml
- Relative activity [3, 8]: 87.3%
- Enzyme activity [3, 9]: 282 units/ml
- Relative activity [3, 9]: 30.9%
- Enzyme activity ([3]; No heat treatment, Disruption): 914 units/ml
- Relative activity ([3]; No heat treatment, Disruption): 100%
- Enzyme activity [3, 10]: 17.5 units/ml
- Relative activity [3, 10]: 1.9%
